# US20090062190A1 (published 2009)
# B1: STAT6(B) (Signal transducer and activator of transcription), full length, aa 1-404 (other)
# chain: MARRNPSPPLQRLRDWGHHHCPCHPGPGWLSTDGEHPAILCQRPVHSLTGGPNPGSCSAQKSLSQEAQGGGFPEPLQAWAGTGCSDSFLSPTSSLLPAALLSLPVCHPDVTPYFIAVLLLLPHDPCPPFPPPFLPNPRALHGCLFLLTTAEQMGKDGRGYVPATIKMTVERGVWWYGQWVGQGLVVLICRKEGWHQPLVSHMYLLPSSRDQPLPTPELQMPTMVPSYDLGMAPDSSMSMQLGPDMVPQVYPPHSHSIPPYQGLSPEESVNVLSAFQEPHLQMPPSLGQMSLSFDQPHPQGLLPCQPQEHAVSSPDPLLCSDVTTVEDSCLSQPVTAFPQGTWIGEDIFPPLLPPTEQDLTKLLLEGQGESGGGSLGAQPLLQPSHYGQSGISMSHMDLRANPSW
# Target: LITAF (LPS-induced TNF-α factor), full length
# Sequence (chain, as listed by the source limits assumed): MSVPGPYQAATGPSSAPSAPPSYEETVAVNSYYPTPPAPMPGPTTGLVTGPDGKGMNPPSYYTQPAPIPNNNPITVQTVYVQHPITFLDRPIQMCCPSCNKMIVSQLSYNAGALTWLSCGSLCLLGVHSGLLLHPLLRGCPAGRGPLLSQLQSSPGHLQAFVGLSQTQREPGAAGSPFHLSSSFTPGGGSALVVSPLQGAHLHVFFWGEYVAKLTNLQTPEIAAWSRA
# Test: cell-based or functional assay
binder,measurement,value
B1,"TNF-promoter activity (luciferase), U2OS cells, co-transfection versus LITAF alone",1.5 fold
same,"TNF-α in supernatants of transfected THP-1 cells (ELISA), versus LITAF alone",1.8 fold
same,"cytokine antibody array, 'W-10' (probably IL-10), THP-1 cells co-transfected with LITAF and STAT6(B)",10 fold
same,"cytokine antibody array, GRO, THP-1 cells co-transfected with LITAF and STAT6(B)",2.1 fold
same,"cytokine antibody array, IFN-γ, THP-1 cells co-transfected with LITAF and STAT6(B)",6.2 fold
same,"cytokine antibody array, IL-1α, THP-1 cells co-transfected with LITAF and STAT6(B)",3 fold
same,"cytokine antibody array, MCP-2, THP-1 cells co-transfected with LITAF and STAT6(B)",8.5 fold
same,"cytokine antibody array, RANTES, THP-1 cells co-transfected with LITAF and STAT6(B)",3.2 fold
same,"cytokine antibody array, TNF-α, THP-1 cells co-transfected with LITAF and STAT6(B)",4 fold
